Measurements: patent US9549967B2, “Regulation of sodium channels by PLUNC proteins” (The University of North Carolina at Chapel Hill, priority 2009, dated 2017)

T1: ENaC (Homo sapiens, UniProt P37088+P51168+P51170)
T1 construct: endogenous in cells; host or cells: primary human bronchial epithelial cultures
T1 sequence (P37088 1-669): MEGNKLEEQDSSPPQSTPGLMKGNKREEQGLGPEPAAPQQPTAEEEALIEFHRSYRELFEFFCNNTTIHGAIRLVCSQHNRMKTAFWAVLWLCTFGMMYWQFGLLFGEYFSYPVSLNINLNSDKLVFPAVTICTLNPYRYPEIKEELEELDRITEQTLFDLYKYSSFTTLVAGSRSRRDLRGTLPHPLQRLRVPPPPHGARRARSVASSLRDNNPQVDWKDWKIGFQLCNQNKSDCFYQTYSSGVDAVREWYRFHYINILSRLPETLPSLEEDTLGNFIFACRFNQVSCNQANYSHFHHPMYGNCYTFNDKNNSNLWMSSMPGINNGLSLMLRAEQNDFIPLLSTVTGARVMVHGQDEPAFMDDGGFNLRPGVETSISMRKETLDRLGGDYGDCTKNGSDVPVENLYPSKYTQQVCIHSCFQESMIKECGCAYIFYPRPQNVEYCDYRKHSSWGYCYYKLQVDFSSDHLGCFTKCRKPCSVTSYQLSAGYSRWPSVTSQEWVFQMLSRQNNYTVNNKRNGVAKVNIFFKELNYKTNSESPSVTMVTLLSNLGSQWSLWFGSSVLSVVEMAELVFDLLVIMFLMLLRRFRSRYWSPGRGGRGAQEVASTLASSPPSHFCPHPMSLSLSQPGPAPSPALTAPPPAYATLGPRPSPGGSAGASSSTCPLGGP
T1 sequence (P51168 1-640): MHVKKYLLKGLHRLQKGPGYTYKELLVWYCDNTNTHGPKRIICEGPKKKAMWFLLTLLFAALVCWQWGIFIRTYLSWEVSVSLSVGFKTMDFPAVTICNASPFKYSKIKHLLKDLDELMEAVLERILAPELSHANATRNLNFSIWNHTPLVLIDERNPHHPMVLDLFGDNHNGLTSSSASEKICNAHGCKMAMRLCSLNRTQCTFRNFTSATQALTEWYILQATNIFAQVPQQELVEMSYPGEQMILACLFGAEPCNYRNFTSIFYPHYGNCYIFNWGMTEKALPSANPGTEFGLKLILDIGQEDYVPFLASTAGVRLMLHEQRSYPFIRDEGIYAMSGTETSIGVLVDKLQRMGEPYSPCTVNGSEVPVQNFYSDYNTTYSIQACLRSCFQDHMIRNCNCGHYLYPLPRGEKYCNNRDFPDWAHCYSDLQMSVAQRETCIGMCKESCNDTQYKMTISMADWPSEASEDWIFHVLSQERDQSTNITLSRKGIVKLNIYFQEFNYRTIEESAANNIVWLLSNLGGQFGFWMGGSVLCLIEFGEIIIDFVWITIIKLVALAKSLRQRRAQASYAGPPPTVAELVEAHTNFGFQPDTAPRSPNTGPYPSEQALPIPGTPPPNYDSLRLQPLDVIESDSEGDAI
T1 sequence (P51170 1-649): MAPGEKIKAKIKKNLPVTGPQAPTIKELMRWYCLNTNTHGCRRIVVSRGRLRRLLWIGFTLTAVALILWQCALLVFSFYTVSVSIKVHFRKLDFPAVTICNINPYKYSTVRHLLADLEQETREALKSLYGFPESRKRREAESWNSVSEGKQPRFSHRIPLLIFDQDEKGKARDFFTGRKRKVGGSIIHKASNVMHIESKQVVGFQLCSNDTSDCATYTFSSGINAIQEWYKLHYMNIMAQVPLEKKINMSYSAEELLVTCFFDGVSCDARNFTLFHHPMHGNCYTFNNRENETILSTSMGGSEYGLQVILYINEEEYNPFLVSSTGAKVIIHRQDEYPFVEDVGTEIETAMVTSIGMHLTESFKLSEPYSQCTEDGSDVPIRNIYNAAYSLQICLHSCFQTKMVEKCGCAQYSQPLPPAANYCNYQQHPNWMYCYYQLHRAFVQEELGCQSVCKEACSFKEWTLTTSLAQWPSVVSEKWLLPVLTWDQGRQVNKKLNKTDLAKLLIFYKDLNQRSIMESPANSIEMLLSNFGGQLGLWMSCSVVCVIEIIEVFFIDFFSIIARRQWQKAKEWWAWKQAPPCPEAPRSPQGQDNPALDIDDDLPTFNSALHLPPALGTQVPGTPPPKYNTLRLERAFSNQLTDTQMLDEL


Columns and labels:
ENaC = molecular target: T1, ENaC; assay: Transepithelial voltage under thin film conditions in human bronchial epithelial cultures (microelectrode); format: cell-based
trypsin = assay: Cell-free fluorogenic assay of BGAR-MCA cleavage by trypsin; format: biochemical; settings: 50 ng/ml rSPLUNC1; 1.0 or 0.3 U/ml trypsin
Experimental: For cell-free assays, reactions were carried out in 50 μl Ringer in a 96 well plate format with 100 μM BGAR-MCA. To measure endogenous protease activity in human bronchial epithelial cultures, 30 μl Ringer with 100 μM BGAR-MCA were placed directly onto the mucosal surfaces of human bronchial epithelial cultures grown on 12 mm T-clear inserts and the cultures were assayed in 12 well plates.

Row | Molecule | transepithelial voltage after mucosal trypsin (ENaC; SPLUNC1-exposed group, trypsin for 30 min after 1 h rSPLUNC1 exposure) | transepithelial voltage after mucosal trypsin (ENaC; control cultures, trypsin for 30 min) | regulation of the transepithelial voltage (ENaC; SPLUNC1 knockdown cultures, 50 ng/ml rSPLUNC1 added to airway surface liquid) | transepithelial voltage (ENaC; cultures not pre-washed, airway surface liquid accumulated for 24 h) | onset of inhibition (ENaC; human bronchial epithelial cultures, FIG. 2C, 2D) | rate of inhibition of the transepithelial voltage (ENaC; rSPLUNC1 vs aprotinin addition, effects not additive) | transepithelial voltage, addition to amiloride-treated cultures (ENaC; same amiloride-treated cultures, n=12) | transepithelial voltage (ENaC; washed cultures, 20 μl Ringer containing 50 ng/ml rSPLUNC1) | effect on the ability of trypsin to cleave fluorogenic substrate BGAR-MCA (trypsin)
1 | trypsin [reference compound] | significantly raised the transepithelial voltage | without effect |  |  |  |  |  |  | 
2 | SPLUNC1: human SPLUNC1, 256 amino acid secreted PLUNC protein (SEQ ID NO:1); rSPLUNC1 = V5/6His-tagged protein purified from HEK293 media (protein, listed as Homo sapiens, V5/6His tag, rSPLUNC1 = V5/6His-tagged protein purified from HEK293 media) MFQTGGLIVFYGLLAQTMAQFGGLPVPLDQTLPLNVNPALPLSPTGLAGSLTNALSNGLLSGGLLGILENLPLLDILKPGGGTSGGLLGGLLGKVTSVIPGLNNIIDIKVTDPQLLELGLVQSPDGHRLYVTIPLGIKLQVNTPLVGASLLRLAVKLDITAEILAVRDKQERIHLVLGDCTHSPGSLQISLLDGLGPLPIQGLLDSLTGILNKVLPELVQGNVCPLVNEVLRGLDITLVHDIVNMLIHGLQFVIKV |  |  | restored | without further effect | 30 to 60 min | identical rates | without further effect | significantly reduced the transepithelial voltage | ~10%
